Our source for the Kd and fold weaker affinity than α3β-HBSSOS values is patent US20170066801A1, “ALPHA3BETA HYDROGEN BOND SURROGATE MACROCYCLES AS MODULATORS OF RAS” (NEW YORK UNIVERSITY, priority 2014, published 2017).

For one assay, the target named is T1, HRas^(1-166) (Homo sapiens, UniProt P01112).
T1 construct: 6×His-tagged HRas WT 1-166; made in house
The assay can be described thus: In vitro pulldown binding assay with 6×His-tagged HRas 1-166 and fluorescein-tagged SOS peptides. To be noted: fluorescein-tagged peptides, 4° C., 1 hour. The protocol:
Recombinantly purified 6×His-tagged HRas WT 1-166 was incubated with Ni-NTA sepharose beads, generating recombinant Ras on solid support. FITC labeled HBS peptides were incubated in the presence of recombinant HRas-6×His/Ni-NTA Sepharose complex at 4° C. for 1 hour. Beads complexes were pelleted and washed 5× with protein buffer (20 mM Tris-HCl pH 7.6, 50 mM NaCl, 4 mM EDTA, 10 mM MgCl2), resuspended in reducing buffer (126 mM Tris-HCL pH 6.8, 20% glycerol, 4% SDS, 0.02% bromophenol blue, 2.5% β-mercaptoethanol), boiled for 10 minutes at 95° C., and subjected to SDS-PAGE with an acrylamide percentage of 20% to allow for sufficient resolution of the HBS helices. SDS-PAGE gels were imaged using an ImageQuant™ LAS 4000 biomolecular imager (GE Healthcare, Piscataway, N.J., USA). Quantification of fluorescence by FITC-HBS helices in gel was determined by manufacturer provided ImageQuant™ TL software. Raw values were normalized to total input and plotted on a semilog graph with GraphPad Prism version 6.00 for OSX (GraphPad Software, La Jolla Calif. USA, www.graphpad.com).
The binding affinity of the designed compounds for Ras was determined using in vitro pulldown assays with recombinantly purified 6×His-tagged HRas^(1-166) and fluorescein-tagged SOS peptides (FIGS. 8 and 9, and Table 2). […]

For assay [1], the target named is 6×His-tagged HRas WT 1-166 (UniProt P01112). The assay can be described thus: in vitro pull-down: fluorescein-tagged peptide on 6×His-HRas 1-166 / Ni-NTA beads, in-gel fluorescence.

Non-standard residues stand in square brackets, D forms with d. Residues, ends and D or L forms follow the SMILES beside them. No end group written: not given here. β3hI = CC[C@H](C)[C@H](N)CC(=O)O; β3hE = N[C@@H](CCC(=O)O)CC(=O)O; β3hA = C[C@H](N)CC(=O)O; Flu = fluorescein

On to `CC[C@H](C)[C@@H](CC(=O)N[C@@H](Cc1ccc(O)cc1)C(=O)N[C@@H](CCCNC(=N)N)C(=O)N[C@@H](CC(C)C)C(=O)N[C@@H](CCC(=O)O)CC(=O)N[C@@H](CC(C)C)C(=O)N[C@@H](CC(C)C)C(=O)N[C@@H](CCCCN)C(=O)N[C@@H](C)CC(=O)N[C@@H](CCC(=O)O)C(=O)N[C@@H](CCC(=O)O)C(=O)N[C@@H](C)C(=O)N[C@@H](CC(N)=O)C(N)=O)NC(=O)CNC(=O)[C@H](CCC(=O)O)NC(=O)[C@H](Cc1ccccc1)NC(C)=O` [α3β-UNCSOS, Ac-FEGiYRLeLLKaEEAN-NH2] (Ac-FEG[β3hI]YRL[β3hE]LLK[β3hA]EEAN-NH2), for which the Kd on HRas^(1-166) amounted to 30.6 ± 12 µM.

B1: α-HBSSOS (fluorescein-tagged) (peptide)
peptide: FEGIYRLELLKAEEAN
modifications: not fully specified; also: hydrogen bond surrogate macrocycle at N-terminus, fluorescein tag, site and linker not given here
As to B1, the dissociation constant (Kd) in assay [1] worked out at 7.75 µM.

B2: α3β-UNCSOS-Flu (peptide)
peptide: Ac-FEG[β3hI]YRL[β3hE]LLK[β3hA]EEANK(Flu)-NH2
modifications: not fully specified (residue 3); printed as Ac-FEG*iYRLeLLKaEEANK(Flu)-NH2
In turn, B2 returned a fold weaker affinity than α3β-HBSSOS in assay [1] of 136 fold.

In general, Kd refers to the constant that tells how readily two partners part at equilibrium.
